The text below walks through data of ChEMBL document CHEMBL1137897, “Inhibition of lysosomal cysteine proteases by chrysotherapeutic compounds: a possible mechanism for the antiarthritic activity of Au(I)” (Bioorg Med Chem Lett, 2004).

Data set [1] addresses AURANOFIN
The conditions noted are these: Paramecium tetraurelia; 3 uM.
Description: Michaelis-Menten constant determined against Paramecium tetraurelia cathepsin L at 3 uM

Data set [2] deals with AURANOFIN
Conditions: Paramecium tetraurelia; 30 uM.
Description: Michaelis-Menten constant determined against Paramecium tetraurelia cathepsin L at 30 uM

Data set [3] concerns the target AURANOFIN
The conditions noted are these: Paramecium tetraurelia; 300 nM.
Description: Michaelis-Menten constant determined against Paramecium tetraurelia cathepsin L at 300 nM

For data set [4], the target named is AURANOFIN
Description: Michaelis-Menten constant determined against Paramecium tetraurelia cathepsin L at 300 uM
The conditions noted are these: Paramecium tetraurelia; 300 uM.

B1: Putative cathepsin L 3 (Paramecium tetraurelia), Q94715 (protein)
chain: MKQFLTAAIVTLLMTAGYYHLQEDDTNDFERWALKNNKFYTESEKLYRMEIYNSNKRMIEEHNQREDVTYQMGENQFMTLSHEEFVDLYLQKSDSSVNIMGASLPEVQLEGLGAVDWRNYTTVKEQGQCASGWAFSVSNSLEAWYAIRGFQKINASTQQIVDCDYNNTGCSGGYNAYAMEYVLRVGLVSSTNYPYVAKNQTCKQSRNGTYFINGYSFVGGSQSNLQYYLNNYPISVGVEASNWQFYRSGLFSNCSSNGTNHYALAVGFDSANNWIVQNSWGTQWGESGNIRLYPQNTCGILNYPYQVY
As a reminder, the Km is the concentration of substrate that gives half-maximal velocity. With B1, the Km with AURANOFIN [1] amounted to 32 µM; in the data set with AURANOFIN [2], 47 µM; in the data set with AURANOFIN [3], 27 µM; with AURANOFIN [4], 49 µM.
